From patent US20240018252A1 (Pfizer, published 2024)
Substitutions are numbered along the chain they refer to.

B1: L3.PY/P6E01 (antibody, V domains shown)
VH: EVQLLESGGGLVQPGGSLRLSCAASGFTFGSYAMTWVRQAPGKGLEWVSAISGSGGNTFYADSVKGRFTISRDNSKNTLYLQMNSLRAEDTAVYYCARVSPIASGMDYWGQGTLVTVSS
VL: EIVLTQSPGTLSLSPGERATLSCRASQSVSSSYLAWYQQKPGQAPRLLIYGASSRATGIPDRFSGSGSGTDFTLTISRLEPEDFAVYYCQHYPYPPSFTFGQGTKVEIK
notes: IgG in the assay
B2: L1.GDF/L3.NY/H3.AP (antibody, V domains shown)
VH: B1 VH with S104A, G105P
VL: B1 VL with S30G, S31D, S32F, P93N
notes: IgG in the assay
B3: L1.GDF/L3.KW/H3.AP (antibody, V domains shown)
VH: B1 VH with S104A, G105P
VL: B1 VL with S30G, S31D, S32F, Q90K, P93G, Y94W
notes: IgG in the assay
B4: L3.PY/L1.PS/H2.HA (antibody, V domains shown)
VH: B1 VH with G53H, S54A
VL: B1 VL with L34P, A35S
notes: IgG in the assay
B5: L3.PY/L1.PS/H2.QR (antibody, V domains shown)
VH: B1 VH with S63Q, V64R
VL: B1 VL with L34P, A35S
notes: IgG in the assay
B6: L3.KW/P6E01 (antibody, V domains shown)
VH: B1 VH
VL: B1 VL with Q90K, P93G, Y94W
notes: IgG in the assay
B7: L3.PY/L1.PS/H3.YA (antibody, V domains shown)
VH: B1 VH with A103Y, S104A
VL: B1 VL with L34P, A35S
notes: IgG in the assay
B8: L3.PY/L1.PS/H2.DY (antibody, V domains shown)
VH: B1 VH with S52D, G53Y
VL: B1 VL with L34P, A35S
notes: IgG in the assay
B9: L3.PY/L3.KF/P6E01 (antibody, V domains shown)
VH: B1 VH
VL: B1 VL with Q90K, H91F
notes: IgG in the assay
B10: L1.GDF/L3.KW/H3.AQ (antibody, V domains shown)
VH: B1 VH with S104A, G105Q
VL: B1 VL with S30G, S31D, S32F, Q90K, P93G, Y94W
notes: IgG in the assay
B11: L1.LGF/L3.NY/P6E01 (antibody, V domains shown)
VH: B1 VH
VL: B1 VL with V29L, S30G, S32F, P93N
notes: IgG in the assay
B12: L1.LGF/L3.KW/H3.AP (antibody, V domains shown)
VH: B1 VH with S104A, G105P
VL: B1 VL with V29L, S30G, S32F, Q90K, P93G, Y94W
notes: IgG in the assay
B13: L1.LGF/L3.KW/H3.AL (antibody, V domains shown)
VH: B1 VH with S104A, G105L
VL: B1 VL with V29L, S30G, S32F, Q90K, P93G, Y94W
notes: IgG in the assay
B14: P6E01/P6E01 (antibody, V domains shown)
VH: B1 VH
VL: not shown
notes: IgG in the assay; also called P6E01_VHVL
B15: L1.LGF/L3.PY/H3.AP (antibody, V domains shown)
VH: B1 VH with S104A, G105P
VL: B1 VL with V29L, S30G, S32F
notes: IgG in the assay
B16: L3.PY/L1.PS/H3.AE (antibody, V domains shown)
VH: B1 VH with S104A, G105E
VL: B1 VL with L34P, A35S
notes: IgG in the assay
B17: L1.LGF/L3.NY/H3.AL (antibody, V domains shown)
VH: B1 VH with S104A, G105L
VL: B1 VL with V29L, S30G, S32F, P93N
notes: IgG in the assay
B18: L1.LGF/L3.KW/P6E01 (antibody, V domains shown)
VH: B1 VH
VL: B1 VL with V29L, S30G, S32F, Q90K, P93G, Y94W
notes: IgG in the assay
B19: L1.LGF/L3.PY/H3.AQ (antibody, V domains shown)
VH: B1 VH with S104A, G105Q
VL: B1 VL with V29L, S30G, S32F
notes: IgG in the assay
B20: L3.NY/P6E01 (antibody, V domains shown)
VH: B1 VH
VL: B1 VL with P93N
notes: IgG in the assay
B21: L1.GDF/L3.NY/H3.AL (antibody, V domains shown)
VH: B1 VH with S104A, G105L
VL: B1 VL with S30G, S31D, S32F, P93N
notes: IgG in the assay
B22: P6E01/H3.AQ (antibody, V domains shown)
VH: B1 VH with S104A, G105Q
VL: not shown
notes: IgG in the assay
B23: L3.PY/L1.PS/H2.YQ (antibody, V domains shown)
VH: B1 VH with G53Y, S54Q
VL: B1 VL with L34P, A35S
notes: IgG in the assay
B24: L1.GDF/L3.PY/H3.AQ (antibody, V domains shown)
VH: B1 VH with S104A, G105Q
VL: B1 VL with S30G, S31D, S32F
notes: IgG in the assay
B25: L3.PY/L1.PS/H2.QL (antibody, V domains shown)
VH: B1 VH with S63Q, V64L
VL: B1 VL with L34P, A35S
notes: IgG in the assay
B26: L1.LGF/L3.NY/H3.AQ (antibody, V domains shown)
VH: B1 VH with S104A, G105Q
VL: B1 VL with V29L, S30G, S32F, P93N
notes: IgG in the assay
B27: L1.LGF/L3.KW/H3.AQ (antibody, V domains shown)
VH: B1 VH with S104A, G105Q
VL: B1 VL with V29L, S30G, S32F, Q90K, P93G, Y94W
notes: IgG in the assay
B28: L1.GDF/L3.NY/H3.AQ (antibody, V domains shown)
VH: B1 VH with S104A, G105Q
VL: B1 VL with S30G, S31D, S32F, P93N
notes: IgG in the assay
B29: L3.PY/L1.PS/H3.TAQ (antibody, V domains shown)
VH: B1 VH with A97T, S104A, G105Q
VL: B1 VL with L34P, A35S
notes: IgG in the assay
B30: L1.LGF/L3.NY/H3.AP (antibody, V domains shown)
VH: B1 VH with S104A, G105P
VL: B1 VL with V29L, S30G, S32F, P93N
notes: IgG in the assay
B31: L3.PY/L1.PS/P6E01 (antibody, V domains shown)
VH: B1 VH
VL: B1 VL with L34P, A35S
notes: IgG in the assay
B32: L3.PY/L1.PS/H3.AQ (antibody, V domains shown)
VH: B1 VH with S104A, G105Q
VL: B1 VL with L34P, A35S
notes: IgG in the assay
B33: L3.PY/L3.KY/P6E01 (antibody, V domains shown)
VH: B1 VH
VL: B1 VL with Q90K, H91Y
notes: IgG in the assay
B34: L1.GDF/L3.NY/P6E01 (antibody, V domains shown)
VH: B1 VH
VL: B1 VL with S30G, S31D, S32F, P93N
notes: IgG in the assay
B35: L1.GDF/L3.KW/H3.AL (antibody, V domains shown)
VH: B1 VH with S104A, G105L
VL: B1 VL with S30G, S31D, S32F, Q90K, P93G, Y94W
notes: IgG in the assay
B36: L3.PY/L1.PS/H2.LT (antibody, V domains shown)
VH: B1 VH with G53L, S54T
VL: B1 VL with L34P, A35S
notes: IgG in the assay

Tests used:
human BCMA [1] = biological target: T1, human BCMA (human, UniProt Q02223 1-54); experiment: SPR, immobilised IgG, 25° C
T1 construct: also called huBCMA; hBCMA
T1 sequence: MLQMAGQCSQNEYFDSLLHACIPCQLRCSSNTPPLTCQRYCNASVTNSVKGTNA

cyBCMA [2] = biological target: T2, cyBCMA (cynomolgus, UniProt A0A2K5UD97 1-53); experiment: SPR, immobilised IgG, 25° C
T2 construct: Soluble analyte in SPR; construct not described; also called cyno BCMA
T2 sequence (A0A2K5UD97 entry or part of it): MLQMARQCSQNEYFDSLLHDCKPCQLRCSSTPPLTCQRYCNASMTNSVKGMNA

human BCMA [3] = biological target: T1, human BCMA; experiment: SPR, immobilised IgG, 37° C
cyBCMA [4] = biological target: T2, cyBCMA; experiment: SPR, immobilised IgG, 37° C

Row | Binder | T½ (human BCMA [1]) | T½ (cyBCMA [2]) | T½ (human BCMA [3]) | T½ (cyBCMA [4])
1 | B1 | 50.7 min | 3.9 min | 5.91 min | 0.88 min
2 | B2 | 8.21 min | 1.6 min | – | –
3 | B3 | 2.51 min | 0.6 min | – | –
4 | B4 | – | – | 1.09 min | 4.3 min
5 | B5 | – | – | 0.11 min | 17.2 min
6 | B6 | 36.7 min | 4.5 min | – | –
7 | B7 | – | – | 1.28 min | 1.16 min
8 | B8 | – | – | 3.2 min | 3.06 min
9 | B9 | – | – | 5.56 min | 1.39 min
10 | B10 | 3.32 min | 2 min | – | –
11 | B11 | 2.63 min | 1.1 min | – | –
12 | B12 | 5.1 min | 0.7 min | – | –
13 | B13 | 9.4 min | 1 min | – | –
14 | B14 | 2.8 min | – | – | –
15 | B15 | 11.9 min | 0.9 min | – | –
16 | B16 | – | – | 7.93 min | 2.8 min
17 | B17 | 11.9 min | 0.8 min | – | –
18 | B18 | 1.53 min | 0.6 min | – | –

Row | Binder | T½ (human BCMA [1]) | T½ (cyBCMA [2]) | T½ (human BCMA [3]) | T½ (cyBCMA [4])
19 | B19 | 13 min | 2.4 min | – | –
20 | B20 | 30.1 min | 4 min | – | –
21 | B21 | 2.87 min | 0.5 min | – | –
22 | B22 | 33.5 min | – | – | –
23 | B23 | – | – | 2.69 min | 3.09 min
24 | B24 | 0.86 min | 0.7 min | – | –
25 | B25 | – | – | 0.04 min | 18.2 min
26 | B26 | 38.6 min | 7.8 min | – | –
27 | B27 | 12.1 min | 3.3 min | – | –
28 | B28 | 16 min | 8.5 min | – | –
29 | B29 | – | – | 4.7 min | 2.09 min
30 | B30 | 21.7 min | 2.1 min | – | –
31 | B31 | – | – | 10.2 min | 1.91 min
32 | B32 | – | – | 6.46 min | 2.67 min
33 | B33 | – | – | 10.7 min | 2.3 min
34 | B34 | 1.95 min | 1.5 min | – | –
35 | B35 | 2.96 min | 0.6 min | – | –
36 | B36 | – | – | 2.49 min | 2.81 min
